Patent publication US20040146984

Key:
[1] = test system: peptide in which the LPSTGE was reversed (EGTSPL)
[2] = test system: peptide in which the LPSTGE was randomly placed (TEPGSL)
[3] = target: native bovine serum albumin (UniProt P02769)
[4] = test system: T1, LPXTG-containing peptide KRQLPSTGETANPFY from the streptococcal M6 protein
T1 sequence: KRQLPSTGETANPFY

native bovine serum albumin, sequence (P02769 25-607): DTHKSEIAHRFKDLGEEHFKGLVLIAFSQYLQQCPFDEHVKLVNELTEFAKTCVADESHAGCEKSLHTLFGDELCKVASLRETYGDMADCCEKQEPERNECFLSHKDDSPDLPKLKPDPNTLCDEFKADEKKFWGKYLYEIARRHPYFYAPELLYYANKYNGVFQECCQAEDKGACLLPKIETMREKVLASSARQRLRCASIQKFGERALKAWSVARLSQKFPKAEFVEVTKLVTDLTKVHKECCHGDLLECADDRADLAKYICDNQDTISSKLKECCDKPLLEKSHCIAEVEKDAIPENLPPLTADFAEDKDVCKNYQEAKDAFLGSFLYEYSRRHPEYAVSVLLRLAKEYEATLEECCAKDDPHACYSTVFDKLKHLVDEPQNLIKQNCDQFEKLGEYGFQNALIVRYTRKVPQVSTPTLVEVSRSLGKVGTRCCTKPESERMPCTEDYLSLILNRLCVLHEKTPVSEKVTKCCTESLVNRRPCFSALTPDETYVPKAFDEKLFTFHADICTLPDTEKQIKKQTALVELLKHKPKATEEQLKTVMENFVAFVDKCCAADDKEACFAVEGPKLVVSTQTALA

## LPXTGase
[1]
  cleavage of bead-bound or free peptide: no cleavage was observed (not shown)
[2]
  cleavage of bead-bound or free peptide: no cleavage was observed (not shown)
[3]
  cleavage (SDS-PAGE for degradation): No cleavage was observed when native bovine serum albumin was reacted in a similar way
[4]
  % of control (Calcium chloride 20 mM): 23 % of control
  % of control (Control, no salt): 100 % of control
  % of control (EDTA 20 mM): 5.2 % of control
  % of control (Hydroxylamine-HCl 100 mM): 27 % of control
  % of control (Magnesium chloride 20 mM): 20 % of control
  % of control (Potassium chloride 100 mM): 20 % of control
  % of control (Putrescene chloride 20 mM): 21 % of control
  % of control (Sodium chloride 100 mM): 16 % of control
  % of control (Sodium phosphate 20 mM): 49 % of control
  % of control (Sodium sulfate 20 mM): 57 % of control
  Km (Lineweaver-Burk plot of cleavage of 125I-labeled peptide, 20 to 240 µM, 2.4 µM enzyme, 30 min): Km of 0.26 mM
  Vmax (Lineweaver-Burk plot of cleavage of 125I-labeled peptide): Vmax of 67 µM in 30 min when 2.4 µM of enzyme was used in the assay
  cleavage of bead-bound peptide, N-terminal sequencing of the fragment: the enzyme cleaved after glutamic acid within the LPSTGE (SEQ ID NO:3) sequence releasing the TANPFY (SEQ ID NO:6) peptide fragment
  cleavage of free peptide, sequencing of the fragments: the enzyme cleaved the free KRQLPSTGETANPFY (SEQ ID NO:2) peptide at two sites, after the serine and the glutamic acid of LPSTGE
  peptide cleaved, cpm (Calcium chloride 20 mM): 9710 cpm
  peptide cleaved, cpm (Control, no salt): 41500 cpm
  peptide cleaved, cpm (EDTA 20 mM): 2150 cpm
  peptide cleaved, cpm (Hydroxylamine-HCl 100 mM): 11200 cpm
  peptide cleaved, cpm (Magnesium chloride 20 mM): 8620 cpm
  peptide cleaved, cpm (Potassium chloride 100 mM): 8610 cpm
  peptide cleaved, cpm (Putrescene chloride 20 mM): 8710 cpm
  peptide cleaved, cpm (Sodium chloride 100 mM): 6720 cpm
  peptide cleaved, cpm (Sodium phosphate 20 mM): 20600 cpm
  peptide cleaved, cpm (Sodium sulfate 20 mM): 23500 cpm
